# Measured values taken from the DeepSol protein solubility set.
# Assay: soluble on expression in E. coli; label from the status in PepcDB or PDB records
row,Sequence,soluble on expression in E. coli
1,MGSDKIHHHHHHVNVAQPEPGSGPTVRRMLLGSQLRRLREAKGISRADAAYKIRGSESKISRIELGRVGFKTRDVEDLLTFYGVEDEAVRDSFLKLAREANEPGWWQQYGDSLPSWFQSYVGMEEAATQLRVYETQFVPGLLQTEDYARAVVTRGGRKKLDDAARHRIATRMRRQERIRKNHNVKLWVIIDEPAVRRPVGTPEVMRAQLEHLYDLSMAPNITLQIVPFHQGVFAAETGSFTILRYPEYDLPDVVYVEQLTSCLFQEKRADVEQYTMTLEWLAVVAERPDQTRKMLQKMIKELEE,not soluble
2,MGHHHHHHSHAADEEKAARGIAADRLIIGHVARFHEVKNHAFLLKLAAHLKERGIRFQLVLAGDGPLCGEIEEEARQQNLLSDVLFLGTEERIHELMRTFDVFVMPSLYEGLPVVLVEAQASGLPCIISDSITEKVDAGLGLVTRLSLSEPISVWAETIARAAAAGRPKREFIKETLAQ,soluble
3,GSHMAITGTIAAIATAIVPQQGSVGIVRVSGSQAIAIAQTLFDAPGKQVWESHRILYGYIRHPQTRQIVDEALLLLMKAPRSYTREDVVEFHCHGGIIAVQQVLQLCLESGARLAQPGEFTLRAFLNGRLDLTQAESIADLVGARSPQAAQTALAGLQGKLAHPIRQLRANCLDILAEIEARIDFEEDLPPLDDEAIISDIENIAAEISQLLATKDKGELLRTGLKVAIVGRPNVGKSSLLNAWSQSDRAIVTDLPGTTRDVVESQLVVGGIPVQVLDTAGIRETSDQVEKIGVERSRQAANTADLVLLTIDAATGWTTGDQEIYEQVKHRPLILVMNKIDLVEKQLITSLEYPENITQIVHTAAAQKQGIDSLETAILEIVQTGKVQAADMDLAINQRQAAALTQAKMSLEQVQATITQQLPLDFWTIDLRGAIQALGEITGEEVTESVLDRIFSRFCIGK,soluble
4,GHMSDLVTKFESLIISKYPVSFTKEQSAQAAQWESVLKSGQIQPHLDQLNLVLRDNTFIVSTLYPTSTDVHVFEVALPLIKDLVASSKDVKSTYTTYRHILRWIDYMQNLLEVSSTDKLEINHD,soluble
5,MGSDKIHHHHHHMKKIIIVSCLMSGVLNFGYSITTESIPTCSSFLSKLLSTAKSDTLSKVKLENCTFEEFKNNYDKDKFPVEFRNNQEEKSFYRHLKERDNYAGISNLYDMWKWVRFNRGFLEQQNEKLFHVYDKLNEVGINPESLDSMSYLNLKGINENINALTESINPSVEAIKYLLPDFEKYVAAYEKLAKEGDSLSYSDFKKASGRGATTANIQQIDQRILHQFRKEMHMNTANTAAMSSLNFGNGYGVSVGAAIGGHKGQYSLALGTAYTDYQTQVNVKIALPVKQPKPSNITYGVGFVYNFQ,not soluble
6,MGSDKIHHHHHHMKIGDKVRFLSEVGGGIVTGFKGKDFVLVEDADGFDIPMPIRECVVIEADDYNIKRKPAATAPKQEEPAKPAKPEMPVIQRQPEVRGGDTLNVFLAYVPEDAKAMMTTPFEAYLVNDSNYYLYYTYLSAEGKAWNNRSHGLVEPNTKLLLEEFTKDVLNEMERVAVQLIAFKDGKPAAIKPAVSVELRIDTVKFYKLHTFSASDFFEEPALIYDIVKDDVPAKQVYVSAEEIQSALLQKKFVDKPKSQPIMKPNHGQSGKNGIIEVDLHIDSLLDDTHGMSNSEILNYQLDKFREVIEANKEKREQKVVFIHGKGDGVLRKAIIDELKRKHSNYRYQDASFQEYGFGATMVTIK,not soluble
7,MTELARLKFYATQPHPCSYLPEEQATTLFLDPSQPMDTQLYASLSEVGFRRSGDHLYRPHCQHCTACIAARIPVADFSPNRQQRRILKRNAELQVIRKRPSFNEEYYDLYRRYIEQRHADGDMYPPSRDQFATFLVRDLPFCCFFEFRLHGRLLAIAVTDVLPNGLSAVYTFYDPDEEQRSLGRYAILWQIAETERLGLQAVYLGYWIKNCRKMNYKTQYRPIELFVNQRWVALTLEHHHHHH,not soluble
8,MSLKILDISTEVKEIALKTPFITALRRVDAVEFVRVKVVCDDGSVAYGEAPATRAVTGEDIYSILSDIAFIQEELIGLTPKDAIVSLHLAEMGSSAKAALDMALFYLLPQTKEKQNLTLQTDITISLKDSDEMISDATQAIASGMNILKVKFGGDIKHAIEVTNRLSELDAKLIIDANQAWTQDDTMEYLEATLNVKLELIEQPVKADELHELRCITNYSHVPILADESVFTLEDAKAIIEYACADMINIKLMKCGGVTKAIEILEFARKNDIKCMLGSMLEGPISINAALNLAMEYSDVIAYIDLDSPLLYKEPSNELEFDFNGCEITRKEGHHHHHH,soluble
9,IAAVGDGVCMLDRGFRIVYQNRAHERLLGEHGGERCSDAYGEDPDACRDCPMARAMDTGEVCTGSRRFISKGETRLLEITSSPVRNAAGEIVAGVEVVRDVT,not soluble
10,MSKPGRTILASKVAETFNTEIINNVEEYKKTHNGQGPLLVGFLANNDPAAKMYATWTQKTSESMGFRYDLRVIEDKDFLEEAIIQANGDDSVNGIMVYFPVFGNAQDQYLQQVVCKEKDVEGLNHVYYQNLYHNVRYLDKENRLKSILPCTPLAIVKILEFLKIYNNLLPEGNRLYGKKCIVINRSEIVGRPLAALLANDGATVYSVDVNNIQKFTRGESLKLNKHHVEDLGEYSEDLLKKCSLDSDVVITGVPSENYKFPTEYIKEGAVCINFACTKNFSDDVKEKASLYVPMTGKVTIAMLLRNMLRLVRNVELSKEK,soluble
11,MSLDTTGITPTSIRIGSTSPQSGPVSAYGVQARCQAAYFKMINDRGGIAGRKIDFIYYDDAFNPAKTVEQTRKLVESDEVALLFSNLGTATNSAIVKYANAKKIPHLFLSVNGDKWSDYKAHPWSIGFAPSARTEAAIFVKHMLAEKPDAKFAVLYQNDDFGKDFVLGAKDVLGERESRQLVTISHETSDPTIDSQILQLRAAAPDALISGTTAKFTAQAIRKVAETRWQVRHYITGGSSSYAGTIGPAGPENAVGVISSAYLKDVADPAWKDDQGIKDFLAFMQSYFPEGNKDDFYNLYAYTVASALVKVLTQCGDGWTRENIMAQATNLKDVELPTLLPGIRVNTSPTDYRPLTQVQLQKWDGKAWVRFGDVLGAEGHHHHHH,soluble
12,MAYCNPGLESRPNKRNALRRHVVTGIGMKIVIAPDSYKESLSASEVAQAIEKGFREIFPDAQYVSIPVADGGEGTVEAMIAATQGSERHAWVTGPLGEKVNASWGISGDGKTAFIEMAAASGLELVPAEKRDPLVTTSRGTGELILQALESGATNIIIGIGGSATNDGGAGMVQALGAKLCDANGNEIGFGGGSLNTLNDIDISGLDPRLKDCVIRVACDVTNPLVGDNGASRIFGPQKGASEAMIVELDNNLSHYADVIKKALHVDVKDVPGAGAAGGMGAALMAFLGAELKSGIEIVTTALNLEEHIHDCTLVITGEGRIDSQSIHGKVPIGVANVAKKYHKPVIGIAGSLTDDVGVVHQHGIDAVFSVLTSIGTLDEAFRGAYDNICRASRNIAATLAIGMRNTG,not soluble
13,MGSDKIHHHHHHMEIGIAASVSELDGVQWDALSDGSPLLSHAFLSALEHSGSVGEGTGWQPMPLTVRRDGKLIGAVPLYLKHHSYGEYVFDWSWAGAYTQHGGEYYPKLVAAVPFTPITGSRLLSHDPMLQAHMAEVLRDTVQRLQLSSAHVLFPDEQSAEVLSGQGWLRRQGVQFRWHNQGFASFDEFLMTLTHDKRKKIRQERRKVDAAGVICRRLLGAEIGEREWDFFYKCYVNTYLEHRSSPYLTQAFFHELGERLPGNVMLVLAERDGRRIGAALNLYDTDCLYGRYWGALAYVPNLHFELCYYQAQLFCIERGIRFFEGGAQGEHKLARGFVARETCSFHHIAHPDFEAAIRHFVSREAVGVSHYQQELDERAPYRKPG,not soluble
14,GPLGSGTWDCDTCLVQNKPEAVKCVACETPKPG,soluble
15,MGSDKIHHHHHHMIKIKKSEDCCGCSACLSICNHNAIVFKEDVEGFKYPMIEEGKCINCGLCEMACPILYRKVKDIRPTPKAYFAARHKNIVTLRNSSSGGAFTAIAGSVIELGGVVCGVEYDNDGVVRHSFSETMEGIRSFMGSKYVQSEIQGVYNQIKTYLKSDRWVLFTGSPCQVEGLKLFLRKPYENLLTVDLVCHAVPSPLIYKQYINMCSTKLGQKVMSINMRYKQTYGWSHRFSYCFYFENGQKAVDPVWVVNWGKIFFSQMINRPSCHSCKYSNLDRPGDFTIADFWDDKKNRPDLYSCEGTSLLMVNTNMGLDLINKLYDSIDLWKITKDEAMQPCLIRPTCSNQRRQEFWEFYLLRGFDAAYKKYFGDSKYVITKKIVKQIIKRVLRKLQ,not soluble
16,LDSKTLARRVLVAQMLATANNVYPTSQTFREKLANLYGAQFSTCISKKGKVHIVDIDISFVSDKFILEGKSILGEIIHFLRAALFKPLISVEHYQSKSFDLEKEN,not soluble
